Experimental data from publication PMC5017159.

What was measured:
[1] = target: human heat shock protein 70 (hHsp70) (human) (UniProt P0DMV8); experiment: BLI; Octet Red; biotinylated hHsp70 immobilised on streptavidin tips, dipped into E. coli GAPDH (39.5, 59.3, 88.9, 133.3 and 200 nM) in PBS; association 600 s, dissociation 900 s; 1:1 model
[2] = target: human GAPDH (human) (UniProt P04406); experiment: BLI; Octet Red; biotinylated human GAPDH immobilised on streptavidin tips, dipped into hHsp70 (2.05, 5.12, 12.8, 32 and 80 nM) in PBS; association 600 s, dissociation 900 s; 1:1 model
Sequence of UniProt P04406 (P04406 whole entry): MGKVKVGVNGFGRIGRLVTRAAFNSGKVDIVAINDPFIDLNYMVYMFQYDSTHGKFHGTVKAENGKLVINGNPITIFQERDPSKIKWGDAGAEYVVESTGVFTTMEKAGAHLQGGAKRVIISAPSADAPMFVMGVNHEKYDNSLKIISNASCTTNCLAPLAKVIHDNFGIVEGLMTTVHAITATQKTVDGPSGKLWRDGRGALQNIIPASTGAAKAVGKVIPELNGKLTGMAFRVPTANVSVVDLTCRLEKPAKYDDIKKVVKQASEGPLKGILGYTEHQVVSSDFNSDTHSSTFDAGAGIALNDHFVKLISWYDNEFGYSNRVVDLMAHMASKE

Kd [1]	koff [1]	kon [1]	Kd [2]	koff [2]	kon [2]	Substance
8.2 nM	0.00024 s⁻¹	29300 M⁻¹ s⁻¹				E. coli glyceraldehyde 3-phosphate deshydrogenase (GAPDH), recombinant (from UniProt P0A9B2 1-331) (enzyme)
			1.3 nM	9.3e-05 s⁻¹	72400 M⁻¹ s⁻¹	human heat shock protein 70 (hHsp70) (from UniProt P0DMV8 1-641) (natural protein)
